Ends that are not written are not given here.
B1: Mouse-human chimeric antibody 18B7 (IgG1) (antibody, V domains shown)
VH: DVKLVESGGGLLKLGGSLKLSCVASGFSFSSYFMSWVRQTPEKRLELVAMINNNGDKTYYPDTVRGRFTISRDNAKNTLYLQMSSLKSEDTAMYYCARRDGTFGNHFDYWGQGTTLTVSS
VL: DVVMTQAPLALPVSLGDQASISCRSSQSLAHSNGNTYLHWYLQKPGQSPKLLIYKVSNRFSGVPDRFSGSGSGTDFTLKISRVEAEDLGVYFCSQSTHVPWTFGGGTKLEIK
notes: as the VH of m1 (identical V regions); human IgG1 (γ1) heavy chain constant region; as the VL of m1 (identical V regions); light chain constant region; IgG1; also called chAb 18B7; ch18B7; source: generated by cloning and transfection as described [36], purified by protein L agarose beads
B2: GXM-binding murine monoclonal antibody 18B7 (antibody, V domains shown)
VH: B1 VH
VL: B1 VL
notes: VH of mAb 18B7; murine IgG1 heavy chain constant region; VL of mAb 18B7; murine light chain constant region; Murine IgG1; also called mAb 18B7; m18B7
B3: deglycosylated form of mAb 18B7 (antibody, V domains shown)
VH: B1 VH
VL: B1 VL
notes: as the VH of m1; murine IgG1 heavy chain constant region, as in m1; as the VL of m1; as the light chain constant region of m1; Same chains as m1 without the N-glycan; PNGase F is known to turn the glycosylated Asn into Asp; also called 18B7dg; mAb 18B7dg; source: mAb 18B7 from hybridoma culture supernatants (protein G), incubated with PNGaseF at 37°C for 24 h, dialyzed against PBS

Assays:
[1] = target: GXM-binding murine monoclonal antibody 18B7 (mouse); assay: SPR; BIAcore 3000; antibody immobilised on a CM5 chip through primary amino groups; peptide P1 1.56 µM to 200 µM at 100 µl/min in 0.2 mM K2HPO4/KH2PO4 pH 6.5, 150 mM KCl, 0.01% Tween 20; 25°C; global fit to a two-state model, equilibrium constants calculated from the rate constants
[2] = target: Mouse-human chimeric antibody 18B7 (IgG1) (mouse | human); assay: as above
[3] = target: deglycosylated form of mAb 18B7 (mouse); assay: as above
thyroglobulin = target: T1, thyroglobulin (Bos taurus (assumed), UniProt P01267); assay: ELISA; polystyrene plates coated overnight at 4°C with antigen at 5 µg/ml in bicarbonate buffer pH 9.6; blocked with 1% BSA in TBS; Abs added at 40 µg/ml in 1% BSA/TBS and serially diluted, overnight at 4°C; alkaline-phosphatase conjugated anti-mouse or anti-human IgG; conditions: both partners purified
T1 construct: thyroglobulin (Sigma); source: bought: Sigma
T1 sequence (P01267 20-2769): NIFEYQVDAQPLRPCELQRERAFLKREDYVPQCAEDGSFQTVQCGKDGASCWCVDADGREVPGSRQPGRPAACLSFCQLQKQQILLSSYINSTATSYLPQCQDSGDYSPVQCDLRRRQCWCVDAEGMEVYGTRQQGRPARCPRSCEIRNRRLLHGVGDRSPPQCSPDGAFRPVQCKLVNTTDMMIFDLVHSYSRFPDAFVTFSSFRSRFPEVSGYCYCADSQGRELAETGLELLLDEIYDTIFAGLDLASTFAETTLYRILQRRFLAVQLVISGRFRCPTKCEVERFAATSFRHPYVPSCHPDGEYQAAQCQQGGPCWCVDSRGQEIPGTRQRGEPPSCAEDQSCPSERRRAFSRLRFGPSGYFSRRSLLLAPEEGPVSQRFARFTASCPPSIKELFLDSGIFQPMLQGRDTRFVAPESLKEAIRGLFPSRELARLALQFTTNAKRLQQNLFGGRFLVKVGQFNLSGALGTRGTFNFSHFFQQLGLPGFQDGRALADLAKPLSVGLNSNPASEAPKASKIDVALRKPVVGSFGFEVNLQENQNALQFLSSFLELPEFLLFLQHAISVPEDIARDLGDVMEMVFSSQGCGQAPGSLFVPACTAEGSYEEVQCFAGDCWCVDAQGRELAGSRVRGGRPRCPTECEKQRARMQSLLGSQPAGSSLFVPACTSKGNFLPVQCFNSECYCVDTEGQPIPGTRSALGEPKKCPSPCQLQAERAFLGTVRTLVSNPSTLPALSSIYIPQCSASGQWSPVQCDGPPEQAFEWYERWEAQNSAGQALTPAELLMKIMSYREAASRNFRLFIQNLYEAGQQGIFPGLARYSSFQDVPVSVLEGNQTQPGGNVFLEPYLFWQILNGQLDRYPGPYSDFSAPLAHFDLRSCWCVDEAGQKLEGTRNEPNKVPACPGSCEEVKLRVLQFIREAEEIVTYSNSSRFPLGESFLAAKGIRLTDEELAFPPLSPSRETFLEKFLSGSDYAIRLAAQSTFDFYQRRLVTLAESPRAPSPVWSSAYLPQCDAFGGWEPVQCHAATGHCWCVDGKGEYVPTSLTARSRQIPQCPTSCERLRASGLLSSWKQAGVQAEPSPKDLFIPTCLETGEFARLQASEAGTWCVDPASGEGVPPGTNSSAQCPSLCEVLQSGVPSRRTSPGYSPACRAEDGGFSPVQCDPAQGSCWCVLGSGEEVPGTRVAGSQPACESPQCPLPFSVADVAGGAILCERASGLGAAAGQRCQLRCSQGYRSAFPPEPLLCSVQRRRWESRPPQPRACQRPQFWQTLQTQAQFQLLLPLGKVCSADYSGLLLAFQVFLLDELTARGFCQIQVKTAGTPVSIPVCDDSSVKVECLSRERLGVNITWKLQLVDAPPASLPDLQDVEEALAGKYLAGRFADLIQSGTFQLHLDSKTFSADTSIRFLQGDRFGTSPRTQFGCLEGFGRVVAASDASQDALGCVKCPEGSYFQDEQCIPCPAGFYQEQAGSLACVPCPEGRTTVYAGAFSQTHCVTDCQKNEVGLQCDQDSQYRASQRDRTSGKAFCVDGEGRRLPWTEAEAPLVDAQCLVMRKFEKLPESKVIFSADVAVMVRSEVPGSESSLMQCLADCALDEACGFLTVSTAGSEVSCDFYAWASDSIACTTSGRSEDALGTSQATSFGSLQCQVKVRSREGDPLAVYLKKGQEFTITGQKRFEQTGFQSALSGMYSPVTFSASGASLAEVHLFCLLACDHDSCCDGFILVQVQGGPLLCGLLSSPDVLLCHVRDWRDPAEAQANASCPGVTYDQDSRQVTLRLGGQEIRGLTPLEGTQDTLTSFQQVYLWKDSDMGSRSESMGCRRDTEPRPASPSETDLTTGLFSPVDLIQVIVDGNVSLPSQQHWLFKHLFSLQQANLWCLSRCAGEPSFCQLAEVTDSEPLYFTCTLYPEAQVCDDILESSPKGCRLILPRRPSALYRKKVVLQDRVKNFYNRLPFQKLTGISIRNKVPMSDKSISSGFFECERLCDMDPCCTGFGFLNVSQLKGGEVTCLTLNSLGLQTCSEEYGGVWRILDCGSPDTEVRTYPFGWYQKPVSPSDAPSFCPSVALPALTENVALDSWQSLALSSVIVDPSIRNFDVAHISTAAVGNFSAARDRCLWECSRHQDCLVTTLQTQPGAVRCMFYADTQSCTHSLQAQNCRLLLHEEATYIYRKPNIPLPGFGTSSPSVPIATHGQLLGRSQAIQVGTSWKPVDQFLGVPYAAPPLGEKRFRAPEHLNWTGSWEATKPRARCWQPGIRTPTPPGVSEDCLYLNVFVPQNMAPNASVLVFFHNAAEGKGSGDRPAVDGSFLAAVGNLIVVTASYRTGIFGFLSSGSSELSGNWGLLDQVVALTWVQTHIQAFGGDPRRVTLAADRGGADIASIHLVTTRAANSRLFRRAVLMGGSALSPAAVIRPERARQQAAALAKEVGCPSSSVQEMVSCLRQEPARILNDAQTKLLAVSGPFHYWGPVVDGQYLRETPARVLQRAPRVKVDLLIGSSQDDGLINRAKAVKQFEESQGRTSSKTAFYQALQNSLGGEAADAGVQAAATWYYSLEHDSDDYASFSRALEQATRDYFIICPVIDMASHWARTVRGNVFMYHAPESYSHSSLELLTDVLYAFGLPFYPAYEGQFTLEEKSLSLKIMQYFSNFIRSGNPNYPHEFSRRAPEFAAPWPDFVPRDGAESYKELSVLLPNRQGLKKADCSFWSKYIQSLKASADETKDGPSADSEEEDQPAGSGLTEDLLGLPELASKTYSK

Row | Binder | Kd [1] [µM] | Kd [2] [µM] | Kd [3] [µM] | binding result (thyroglobulin)
1 | SPNQHTPPWMLK (also: biotinylated, position not given here) [Peptide mimetic of GXM P1] | 2330 | 541 | 1070 | 
2 | B1 |  |  |  | binds
3 | B2 |  |  |  | binds
4 | B3 |  |  |  | binds

Source: paper PMC2110899, “Exchanging Murine and Human Immunoglobulin Constant Chains Affects the Kinetics and Thermodynamics of Antigen Binding and Chimeric Antibody Autoreactivity” (PLoS ONE, 2007)
